The results in this text go back to PMC12795458.

For this test, the target named is RipA fused to the Nanoluciferase large subunit (CEPlac-lgbit-ripA). The experiment in a line: split-luciferase assay. The settings on record: in S. pneumoniae cells, signal relative to control strains R5380 and R5570, read off a plot.

For the substance “DnaN fused to the Nanoluciferase small subunit (CEPIIlac-smBit-dnaN) (from UniProt O06672) H183P”, the response (relative fold induction) (strain R5566 vs R5381, parent: est. 22) came out at 4.8.

Regarding “DnaN fused to the Nanoluciferase small subunit (CEPIIlac-smBit-dnaN) (from UniProt O06672) Y249N”, for the setting “strain R5568 vs R5381, parent: est. 13”, the response (relative fold induction) came out at 4.8.

Consider “DnaN fused to the Nanoluciferase small subunit (CEPIIlac-smBit-dnaN) (from UniProt O06672) L185R”, for which, where the note is “strain R5567 vs R5381, parent: est. 27”, the response (relative fold induction) turned out to be 5.5.
